Where a chain is given by its changes, count along the chain named.
Columns and labels:
Assay type in all cases: binding
[1] = molecular target: T1, S.cerevisiae Rad51 (1-226) + H.sapiens Rad51 (168-339) (UniProt P25454+Q06609); assay: Y2H assay, RAD51 hybrid constructs; design: key: cells having the interaction would survive (+); cells not having the interaction would die (−) on selective media (−ADE, −HIS)
T1 construct: S.cerevisiae Rad51 (1-226) +; H.sapiens Rad51 (168-339); expressed in transfected cells
T1 sequence (Q06609 168-339, one chain of several): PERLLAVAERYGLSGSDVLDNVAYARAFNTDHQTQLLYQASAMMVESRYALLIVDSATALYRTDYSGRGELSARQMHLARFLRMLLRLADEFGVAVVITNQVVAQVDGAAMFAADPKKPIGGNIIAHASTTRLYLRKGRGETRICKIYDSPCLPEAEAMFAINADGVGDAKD
Description: (§1) RAD51-binding peptides were tested for ability to bind RAD51 of several different species using a “conventional” Y2H assay, where interaction between the two-hybrid pair drove expression of ADE2 and HIS genes. In this Y2H assay the two-hybrid pair was RAD51 and the compound 5 peptide sequence (SEQ ID NO.: 5), so that cells having the interaction would survive (+) and cells not having the interaction would die (−) on selective media (−ADE, −HIS).
(§2) Based on sequence comparisons of S. cerevisiae and H. sapiens RAD51, multiple cerevisiae-sapiens hybrid constructs of RAD51 were constructed and tested for their ability to bind RAD51-binding peptide in the same RAD51/SEQ ID NO.: 5 hybrid system described above.

[2] = molecular target: T2, S.cerevisiae Rad51 (1-250) + H.sapiens Rad51 (190-339) (UniProt P25454+Q06609); assay: Y2H assay, RAD51 hybrid constructs; design: key: cells having the interaction would survive (+); cells not having the interaction would die (−) on selective media (−ADE, −HIS)
T2 construct: S.cerevisiae Rad51 (1-250) +; H.sapiens Rad51 (190-339); expressed in transfected cells
T2 sequence (Q06609 190-339, one chain of several): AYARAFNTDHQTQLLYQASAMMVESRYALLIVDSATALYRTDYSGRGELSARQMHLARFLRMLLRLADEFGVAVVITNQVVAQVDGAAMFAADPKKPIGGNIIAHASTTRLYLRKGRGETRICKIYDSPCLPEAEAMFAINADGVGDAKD
Description: as §1, §2

[3] = molecular target: T3, S.cerevisiae Rad51 (1-278) + H.sapiens Rad51 (218-339) (UniProt P25454+Q06609); assay: Y2H assay, RAD51 hybrid constructs; design: key: cells having the interaction would survive (+); cells not having the interaction would die (−) on selective media (−ADE, −HIS)
T3 construct: S.cerevisiae Rad51 (1-278) +; H.sapiens Rad51 (218-339); expressed in transfected cells
T3 sequence (P25454 1-278): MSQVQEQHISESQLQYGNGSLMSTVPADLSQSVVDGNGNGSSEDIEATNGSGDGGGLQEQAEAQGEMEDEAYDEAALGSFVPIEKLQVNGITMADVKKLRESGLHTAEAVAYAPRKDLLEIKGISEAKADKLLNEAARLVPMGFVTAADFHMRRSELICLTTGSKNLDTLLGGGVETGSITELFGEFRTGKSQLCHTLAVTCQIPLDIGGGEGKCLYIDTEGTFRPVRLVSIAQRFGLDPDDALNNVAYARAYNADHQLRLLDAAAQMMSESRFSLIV
T3 sequence (Q06609 218-339): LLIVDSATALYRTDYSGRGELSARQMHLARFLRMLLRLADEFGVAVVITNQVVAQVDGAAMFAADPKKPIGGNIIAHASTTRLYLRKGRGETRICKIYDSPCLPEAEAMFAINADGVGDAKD
Description: as §1, §2

[4] = molecular target: T4, Rad51 (S208L; A209E; M210A) (Homo sapiens, UniProt Q06609, A209E/M210A/S208L); assay: Y2H assay, human RAD51 mutants; design: key: (+) denotes a successful interaction between the two Y2H baits; (−) denotes a lack of interaction
T4 construct: expressed in transfected cells
T4 sequence (Q06609 1-339 S208L/A209E/M210A): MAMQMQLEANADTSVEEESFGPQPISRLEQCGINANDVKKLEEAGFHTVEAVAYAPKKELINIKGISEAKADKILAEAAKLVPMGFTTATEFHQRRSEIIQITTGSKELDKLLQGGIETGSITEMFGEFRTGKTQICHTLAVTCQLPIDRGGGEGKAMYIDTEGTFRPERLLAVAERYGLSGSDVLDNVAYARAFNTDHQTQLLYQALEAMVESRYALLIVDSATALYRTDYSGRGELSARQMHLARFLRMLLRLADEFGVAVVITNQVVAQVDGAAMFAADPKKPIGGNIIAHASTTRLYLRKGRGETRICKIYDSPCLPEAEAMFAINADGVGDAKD
Description: (§3) The ability of peptides to bind human RAD51 with various mutations was then tested by Y2H assay. […] While mutations affecting BRCA2 binding had no effect on peptide binding, mutations that affected RAD51-AP1 binding did disrupt peptide binding. As these mutations were at residues 202, 205, and 206, they were consistent with the previous fusion data showing binding somewhere in the 190-218 region, and indicated the peptide SEQ ID NO.: 5 contacts at least residues 202, 205, and 206 of RAD51.

Rad51 (F86E; A89E) = molecular target: T5, Rad51 (F86E; A89E) (Homo sapiens, UniProt Q06609, A89E/F86E); assay: Y2H assay, human RAD51 mutants; design: key: (+) denotes a successful interaction between the two Y2H baits; (−) denotes a lack of interaction
T5 construct: expressed in transfected cells
T5 sequence (Q06609 1-339 F86E/A89E): T4 sequence (Q06609 1-339 S208L/A209E/M210A) with F86E, A89E, L208S, E209A, A210M
Description: as §3

D.rerio Rad51 = assay: Y2H assay RAD51/SEQ ID NO.: 5 pair; design: key: cells having the interaction would survive (+); cells not having the interaction would die (−) on selective media (−ADE, −HIS)
Description: (§4) RAD51-binding peptides were tested for ability to bind RAD51 of several different species using a “conventional” Y2H assay, where interaction between the two-hybrid pair drove expression of ADE2 and HIS genes.

H.sapiens Rad51 = molecular target: T6, H.sapiens Rad51 (Homo sapiens, UniProt Q06609); assay: Y2H assay RAD51/SEQ ID NO.: 5 pair; design: key: cells having the interaction would survive (+); cells not having the interaction would die (−) on selective media (−ADE, −HIS)
T6 construct: expressed in transfected cells
T6 sequence (Q06609 1-339): T4 sequence (Q06609 1-339 S208L/A209E/M210A) with L208S, E209A, A210M
Description: as §4

C.albicans Rad51 = assay: Y2H assay RAD51/SEQ ID NO.: 5 pair; design: key: cells having the interaction would survive (+); cells not having the interaction would die (−) on selective media (−ADE, −HIS)
Description: as §4

KRRRRRRRKRLGVRLRVSRML [SEQ ID NO.: 5]
SEQ ID NO.: 5 Binding [1]: + | SEQ ID NO.: 5 Binding [2]: + | SEQ ID NO.: 5 Binding [3]: − | Y2H interaction with SEQ ID NO.: 5 [4]: + | Y2H interaction with SEQ ID NO.: 5 (Rad51 (F86E; A89E)): + | Compound 5 Sequence Binding (D.rerio Rad51): + | Compound 5 Sequence Binding (H.sapiens Rad51): + | Compound 5 Sequence Binding (C.albicans Rad51): +

— patent publication US12214008B2, “Protein interfaces” (SyntheX, Inc., priority 2016, dated 2025)
